Results: patent US11873336 (TENEOBIO, dated 2024)

T1: human CD22 on CD22-positive Burkitt's lymphoma cells (Daudi, Raji, Ramos) (human, UniProt P20273 20-847)
T1 construct: whole, on cells; also called CD22+ cells; CD22 positive cells
T1 sequence (looked up): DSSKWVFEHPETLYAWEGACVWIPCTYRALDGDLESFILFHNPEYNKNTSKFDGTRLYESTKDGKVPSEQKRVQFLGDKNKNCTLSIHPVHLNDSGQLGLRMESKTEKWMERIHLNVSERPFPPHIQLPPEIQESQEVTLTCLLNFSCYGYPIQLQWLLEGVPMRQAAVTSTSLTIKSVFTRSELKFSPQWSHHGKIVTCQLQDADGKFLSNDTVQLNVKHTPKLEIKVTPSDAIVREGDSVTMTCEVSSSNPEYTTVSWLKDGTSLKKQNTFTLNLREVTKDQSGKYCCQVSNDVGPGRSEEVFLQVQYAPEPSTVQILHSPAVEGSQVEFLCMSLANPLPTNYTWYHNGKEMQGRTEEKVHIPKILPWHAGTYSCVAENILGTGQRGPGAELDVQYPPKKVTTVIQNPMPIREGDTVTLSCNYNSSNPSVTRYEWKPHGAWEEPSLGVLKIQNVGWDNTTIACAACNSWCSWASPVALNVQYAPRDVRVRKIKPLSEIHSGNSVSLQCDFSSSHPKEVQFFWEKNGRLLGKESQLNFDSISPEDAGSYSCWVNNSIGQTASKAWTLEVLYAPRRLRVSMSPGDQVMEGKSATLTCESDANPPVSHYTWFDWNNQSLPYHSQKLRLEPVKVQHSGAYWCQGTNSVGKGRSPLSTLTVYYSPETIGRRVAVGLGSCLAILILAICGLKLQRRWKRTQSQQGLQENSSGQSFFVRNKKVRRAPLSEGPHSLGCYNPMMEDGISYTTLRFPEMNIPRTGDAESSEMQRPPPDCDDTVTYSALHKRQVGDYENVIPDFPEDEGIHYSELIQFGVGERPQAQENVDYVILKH

T2: human CD22 protein (recombinant CD22 extracellular domain) (human, UniProt P20273 20-687)
T2 construct: extracellular domain; also called SIGLEC-2
T2 sequence (looked up): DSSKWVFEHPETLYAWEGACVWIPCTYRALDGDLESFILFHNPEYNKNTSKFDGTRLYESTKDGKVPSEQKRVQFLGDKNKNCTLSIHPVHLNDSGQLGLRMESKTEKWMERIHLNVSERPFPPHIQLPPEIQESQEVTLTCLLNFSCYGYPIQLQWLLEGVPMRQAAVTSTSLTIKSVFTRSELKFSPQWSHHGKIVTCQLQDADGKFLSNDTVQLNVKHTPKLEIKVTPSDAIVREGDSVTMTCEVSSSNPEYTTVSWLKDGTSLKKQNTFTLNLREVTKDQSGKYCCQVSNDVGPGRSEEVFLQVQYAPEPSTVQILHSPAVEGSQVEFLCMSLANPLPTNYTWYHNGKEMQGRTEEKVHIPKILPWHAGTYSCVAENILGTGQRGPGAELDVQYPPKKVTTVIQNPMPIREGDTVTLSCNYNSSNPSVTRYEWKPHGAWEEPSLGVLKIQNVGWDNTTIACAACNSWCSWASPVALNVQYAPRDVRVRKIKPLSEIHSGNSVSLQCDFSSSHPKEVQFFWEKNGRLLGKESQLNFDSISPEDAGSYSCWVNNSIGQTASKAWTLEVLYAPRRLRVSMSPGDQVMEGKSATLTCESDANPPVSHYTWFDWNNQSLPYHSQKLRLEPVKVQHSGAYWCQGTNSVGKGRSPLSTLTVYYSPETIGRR

B1: anti-CD22 heavy chain-only antibody with the VH of SEQ ID NO: 59 (antibody, V domains shown)
VH: QLQLQESGPGLVKPSETLSLTCTVSGDSISSSSYYWGWIRQPPGKGLEWIGSIYYSGSTYYNPSLKSRVTISVDTSKNQFSLKLSSVTAADTAVYYCTREDSSNWRSRGQGTLVTVSS
notes: Heavy chain-only antibody (UniAb), human IgG
B2: anti-CD22 heavy chain-only antibody with the VH of SEQ ID NO: 67 (antibody, V domains shown)
VH: QLQLQESGPGLVKPSETLSLTCTVSGGSITSSSYYWGWIRQPPGKGLEWIGSIYYSGSTYYNPSLKSRVTISVDTSKNQFSLKLSSVTAADTAVYYCTRDDSSNWRSRGQGTLVTVSS
notes: as for B1
B3: anti-CD22 heavy chain-only antibody with the VH of SEQ ID NO: 71 (antibody, V domains shown)
VH: QLQLQESGPGLVKPSETLSLTCTVSGGSISSSSYYWGWIRQPPGKGLEWIGSIYYSGATYYNPSLKNRVTISVDTSRNQFSLNLSSVTAADTAVYYCTREDSSNWRSRGQGTLVTVSS
notes: as for B1
B4: anti-CD22 heavy chain-only antibody with the VH of SEQ ID NO: 75 (antibody, V domains shown)
VH: QLQLQESGPGLVKPSETLSLTCTVSGGSISSSSYYWGWIRQPPGKGLEWIGHIYYSGATYYNPSLKNRVTISVDTSKNQFSLKLSSVTAADTAVYYCTREDSSSWRSRGQGTLVTVSS
notes: as for B1
B5: anti-CD22 heavy chain-only antibody with the VH of SEQ ID NO: 62 (antibody, V domains shown)
VH: QLQLQESGPGLVKPSETLSLTCTVSGGSISSSSYYWGWIRQPPGKGLEWIGHIYYSGATYYNPSLKNRVTISVDTSRNQFSLNLSSVTAADTAVYYCTREDSSSWRSRGQGTLVTVSS
notes: as for B1
B6: anti-CD22 heavy chain-only antibody with the VH of SEQ ID NO: 70 (antibody, V domains shown)
VH: QLQLQESGPGLVRPSETLSLTCTVSGGSISSSSYYWGWIRQPPGKGLEWIGSIYYSGSTYYNPSLKSRVTISVDTSKNQFSLKLSSVTAADTAVYYCTREDSSSWRSRGQGTLVTVSS
notes: as for B1
B7: anti-CD22 heavy chain-only antibody with the VH of SEQ ID NO: 79 (antibody, V domains shown)
VH: QLQLQESGPGLVKPSETLSLTCTVSGGSISSSSYYWGWIRQPPGKGLEWIGSIYYSGSTYYNPSLKNRVTISVDTSRNQFSLNLSSVTAADTAVYYCTRDDSSNWRSRGQGTLVTVSS
notes: as for B1
B8: anti-CD22 heavy chain-only antibody with the VH of SEQ ID NO: 74 (antibody, V domains shown)
VH: QLQLQESGPGLVKPSETLSLTCTVSGDSISSGDYYWGWIRQSPEKGLEWIGHIYYSGVTYYNPSLKNRVTISVDTSKNQFSLKLSSVTAADTAVYYCKRDDSSNWRSRGQGTLVTVSS
notes: as for B1
B9: anti-CD22 heavy chain-only antibody with the VH of SEQ ID NO: 64 (antibody, V domains shown)
VH: QLQLQESGPGLVKPSETLSLTCTVSGGSISSSSYYWGWIRQPPGKGLEWIGHIYYSGATYYNPSLKNRVTISVDTSKNQFSLKLSSVTAADTAVYYCTRDDSSNWRSRGQGTLVTVSS
notes: as for B1
B10: anti-CD22 heavy chain-only antibody with the VH of SEQ ID NO: 73 (antibody, V domains shown)
VH: QLQLQESGPGLVKPSETLSLTCTVSGGSISSSSYYWGWIRQPPGKGLEWIGSIYYSGVTYYNPSLKNRVTISVDTSKNQFSLKLSSVTAADTAVYYCTREDSSSWRSRGQGTLVTVSS
notes: as for B1
B11: anti-CD22 heavy chain-only antibody with the VH of SEQ ID NO: 66 (antibody, V domains shown)
VH: QLQLQESGPGLVKPSETLSLTCTVSGGSISSSSYYWGWIRQPPGKGLEWIGSIYYSGSTYYNPSLKNRVTISVDTSKNQFSLKLSSVTAADTAVYYCTREDSSNWRSRGQGTLVTVSS
notes: as for B1
B12: anti-CD22 heavy chain-only antibody with the VH of SEQ ID NO: 69 (antibody, V domains shown)
VH: QLQLQESGPGLVKPSETLSLTCTVSGGSISSSSYYWGWIRQPPGKGLEWIGSIYYSGSTYYNPSLKSRVTISVDTSKNQFSLKLSSVTAADTAVYYCTREDSSNWRSRGQGTLVTVSS
notes: as for B1
B13: anti-CD22 heavy chain-only antibody with the VH of SEQ ID NO: 76 (antibody, V domains shown)
VH: QLQLQESGPGLVKPSETLSLTCTVSGGSISSSSYYWGWIRQPPGKGLEWIGSVYYTGATYYNPSLKNRVTISVDTSKNQFSLKLSSVTAADTAVYYCTRDDSSNWRSRGQGTLVTVSS
notes: as for B1
B14: anti-CD22 heavy chain-only antibody with the VH of SEQ ID NO: 60 (antibody, V domains shown)
VH: QLQLQESGPGLVKPSETLSLTCTVSGGSISSSSYYWGWIRQPPGKGLEWIGSIYYSGSTYYNPSLKSRVTISVDTSKNQFSLKLSSVTAADTAVYYCAREDSSSWRSRGQGTLVTVSS
notes: as for B1
B15: anti-CD22 heavy chain-only antibody with the VH of SEQ ID NO: 61 (antibody, V domains shown)
VH: QLQLQESGPGLVKPSETLSLTCTVSGGSISSSSYYWGWIRQPPGKGLEWIGSIYYSGATYYNPSLKNRVTISVDTSKNQFSLKLSSVTAADTAVYYCTREDSSSWRSRGQGTLVTVSS
notes: as for B1
B16: anti-CD22 heavy chain-only antibody with the VH of SEQ ID NO: 63 (antibody, V domains shown)
VH: QLQLQESGPGLVKPSETLSLTCTVSGGSISSSSYYWGWIRQPPGKGLEWIGSIYYSGSTYYNPSLKSRVTISVDTSKNQFSLKLSSVTAADTAVYYCTREDSSSWRSRGQGTLVTVSS
notes: as for B1
B17: anti-CD22 heavy chain-only antibody with the VH of SEQ ID NO: 65 (antibody, V domains shown)
VH: QLQLQESGPGLVKPSETLSLTCTVSGGSISSSSYYWGWIRQPPGKGLEWIGSIYYSGATYYNPSLKNRVTISVDTSRNQFSLNLSSVTAADTAVYYCTREDSSSWRSRGQGTLVTVSS
notes: as for B1
B18: anti-CD22 heavy chain-only antibody with the VH of SEQ ID NO: 78 (antibody, V domains shown)
VH: QLQLQESDPGLVKPSETLSLTCTVSGGSISSSSHYWGWIRQPPGKGLEWIGHIYYSGATYYNPSLKNRVTISVDTSRNQFSLNLSSVTAADTAVYYCTREDSSNWRSRGQGTLVTVSS
notes: as for B1
B19: anti-CD22 heavy chain-only antibody with the VH of SEQ ID NO: 72 (antibody, V domains shown)
VH: QLQLQESGPGLVKPSETLSLTCTVSGGSISSSSYYWGWIRQPPGKGLEWIGSIYYSGATYYNPSLKNRVTISVDTSRNQFSLNLSSVTAADTAMYYCTREDSSNWRSRGQGTLVTVSS
notes: as for B1
B20: anti-CD22 heavy chain-only antibody with the VH of SEQ ID NO: 80 (antibody, V domains shown)
VH: QLQLQESGPGLVKPSETLSLTCTVSGGSISSSSYYWGWIRQPPGKGLEWIGHIYYSGATYYNPSLKNRVTISVDTSRNQFSLNLSSVTAADTAVYYCTREDSSNWRSRGQGTLVTVSS
notes: as for B1
B21: anti-CD22 heavy chain-only antibody with the VH of SEQ ID NO: 68 (antibody, V domains shown)
VH: QLQLQESGPGLVKPSETLSLTCTVSGGSISSSSYYWGWIRQPPGKGLEWIGSIYYSGVTYYNPSLKNRVTISVDTSKNQFSLKLSSVTAADTAVYYCTREDSSNWRSRGQGTLVTVSS
notes: as for B1

Key:
[1] = molecular target: T1, human CD22 on CD22-positive Burkitt's …; experiment: cell binding, Daudi cells
Procedure: Binding to CD22 positive cells was assessed by flow cytometry (Guava easyCyte 8HT, EMD Millipore) using the Daudi cell line (ATCC). Briefly, 100,000 target cells were stained with a dilution series of purified UniAbs™ for 30 minutes at 4° C. Following incubation, the cells were washed twice with flow cytometry buffer (1×PBS, 1% BSA, 0.1% NaN_3) and stained with goat F(ab')2 anti-human IgG conjugated to R-phycoerythrin (PE) (Southern Biotech, cat. #2042-09) to detect cell-bound antibodies. After a 20-minute incubation at 4° C., the cells were washed twice with flow cytometry buffer and then mean fluorescence intensity (MFI) was measured by flow cytometry. EC50 values were calculated using GraphPad Prism 7. Binding to *cynomolgus* CD22 positive cells was determined using the same protocol with the following modifications: the target cells were from CHO cells stably transfected to express the extracellular domain of *cynomolgus* CD22 and each antibody was tested at a single concentration (~1.7 µg/mL) so EC50 values were not calculated.

[2] = molecular target: T2, human CD22 protein (recombinant CD22 …); experiment: ELISA on recombinant CD22 extracellular domain and/or cell binding

Row | Binder | binding result [1] | binding result [2]
1 | B1 | binds | binds
2 | B2 | binds | binds
3 | B3 | binds | binds
4 | B4 | binds | binds
5 | B5 | binds | binds
6 | B6 | binds | binds
7 | B7 | binds | binds
8 | B8 | binds | binds
9 | B9 | binds | binds
10 | B10 | binds | binds
11 | B11 | binds | binds
12 | B12 | binds | binds
13 | B13 | binds | binds
14 | B14 | binds | binds
15 | B15 | binds | binds
16 | B16 | binds | binds
17 | B17 | binds | binds
18 | B18 | binds | binds
19 | B19 | binds | binds
20 | B20 | binds | binds
21 | B21 | binds | binds
